For 30 molecules, logFC results are on record in US20220293215A1 (BROAD INSTITUTE, published 2022).

Sequences and labels used below:
T1: I-A^b (MHCII) of murine bone marrow-derived dendritic cells from C57BL/6J mice (mouse, UniProt P14434 24-256; P14483 28-265)
T1 construct: whole, on cells; also called H2-IA
T1 sequence (MHC II alpha, looked up): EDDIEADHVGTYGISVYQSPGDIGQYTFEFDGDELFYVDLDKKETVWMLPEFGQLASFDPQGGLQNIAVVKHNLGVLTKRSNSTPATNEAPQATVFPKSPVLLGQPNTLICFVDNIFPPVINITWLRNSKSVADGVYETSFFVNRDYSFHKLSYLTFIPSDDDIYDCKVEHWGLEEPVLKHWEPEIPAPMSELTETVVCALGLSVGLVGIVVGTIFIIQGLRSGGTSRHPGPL
T1 sequence (MHC II beta, looked up): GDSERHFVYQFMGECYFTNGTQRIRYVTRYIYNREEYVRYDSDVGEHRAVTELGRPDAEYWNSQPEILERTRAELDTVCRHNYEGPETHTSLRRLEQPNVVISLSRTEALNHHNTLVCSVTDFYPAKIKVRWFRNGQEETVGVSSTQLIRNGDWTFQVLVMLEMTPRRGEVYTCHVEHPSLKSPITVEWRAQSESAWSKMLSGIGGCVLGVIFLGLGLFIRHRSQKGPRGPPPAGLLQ

This experiment addresses T1, I-A^b (MHCII) of murine bone …. Description: MHCII peptidomics: Y3P IP of peptide-MHCII from BMDCs exposed to live Listeria, iTRAQ LC-MS/MS.
As for TKEKVVATPVSNVSTSS [Listeria peptide TKEKVVATPVSNVSTSS (lmo0186)], the logFC is -0.286 log2 fold change, Listeria 6 hr versus 10 min.

Consider YPGSDETPPVVNPGETN [Listeria peptide YPGSDETPPVVNPGETN (lmo2185)], for which the logFC is 1.86 log2 fold change, Listeria 6 hr versus 10 min. For YPGSDETPPVVNPGE [Listeria peptide YPGSDETPPVVNPGE (lmo2185)], the logFC is 0.785 log2 fold change, Listeria 6 hr versus 10 min. Then STVVVEAGDTLWGIAQSKGTT (also called lmo0582a_26-46) [Listeria peptide STVVVEAGDTLWGIAQSKGTT (lmo0582 (lap))], with 0.489 log2 fold change, Listeria 6 hr versus 10 min; and AVDDTTVKFTLPTVAPAFENT [Listeria peptide AVDDTTVKFTLPTVAPAFENT (lmo0135)], with 0.871 log2 fold change, Listeria 6 hr versus 10 min; and DDTTVKFTLPTVAPAFE [Listeria peptide DDTTVKFTLPTVAPAFE (lmo0135)], with 0.387 log2 fold change, Listeria 6 hr versus 10 min.

Turning to TTVKFTLPTVAPAFENT [Listeria peptide TTVKFTLPTVAPAFENT (lmo0135)], the logFC was 0.0598 log2 fold change, Listeria 6 hr versus 10 min. Turning to APGQETQHYYGLPVADSAIDR (also called lmo2558_533-553) [Listeria peptide APGQETQHYYGLPVADSAIDR (lmo2558 (ami))], the logFC was 0.856 log2 fold change, Listeria 6 hr versus 10 min.

Take ADFRYVFDTAKATAASSYPGSDETPP [Listeria peptide ADFRYVFDTAKATAASSYPGSDETPP (lmo2185)]: the logFC is 1.56 log2 fold change, Listeria 6 hr versus 10 min. In the case of VETKADIDALSLLSDKIFVTNQT [Listeria peptide VETKADIDALSLLSDKIFVTNQT (lmo1451 (ispH))] it was 1.06 log2 fold change, Listeria 6 hr versus 10 min; in that of YVFDTAKATAASSYPGSDETPP [Listeria peptide YVFDTAKATAASSYPGSDETPP (lmo2185)], 0.611 log2 fold change, Listeria 6 hr versus 10 min; in that of RYVFDTAKATAASSYPGSDETPP [Listeria peptide RYVFDTAKATAASSYPGSDETPP (lmo2185)], 0.271 log2 fold change, Listeria 6 hr versus 10 min.

On to SSYPGSDETPPVVNPGETNPP [Listeria peptide SSYPGSDETPPVVNPGETNPP (lmo2185)], for which the logFC was 0.292 log2 fold change, Listeria 6 hr versus 10 min. In the case of GTKEKVVATPVSNVST [Listeria peptide GTKEKVVATPVSNVST (lmo0186)] it was 0.0371 log2 fold change, Listeria 6 hr versus 10 min. Then RYVFDTAKATAASSYPGSDETPPVVNPGETNPP [Listeria peptide RYVFDTAKATAASSYPGSDETPPVVNPGETNPP (lmo2185)], with 0.634 log2 fold change, Listeria 6 hr versus 10 min; and AVDDTTVKFTLPTVAPAFENTIK [Listeria peptide AVDDTTVKFTLPTVAPAFENTIK (lmo0135)], with 0.464 log2 fold change, Listeria 6 hr versus 10 min. In the case of DDTTVKFTLPTVAPAFEN [Listeria peptide DDTTVKFTLPTVAPAFEN (lmo0135)] it was 0.26 log2 fold change, Listeria 6 hr versus 10 min; in that of IAVTAFAAPTIASA (also called lmo0582b_12-25) [Listeria peptide IAVTAFAAPTIASA (lmo0582 (lap))], 0.181 log2 fold change, Listeria 6 hr versus 10 min.

Take EAKELVDNAPKALKEGIA [Listeria peptide EAKELVDNAPKALKEGIA (lmo0251 (rplL))]: the logFC was 0.93 log2 fold change, Listeria 6 hr versus 10 min. In the case of DGLTWHDGKPLTADDV [Listeria peptide DGLTWHDGKPLTADDV (lmo0135)] it was 1.02 log2 fold change, Listeria 6 hr versus 10 min; in that of VDDTTVKFTLPTVAPAFE [Listeria peptide VDDTTVKFTLPTVAPAFE (lmo0135)], 0.455 log2 fold change, Listeria 6 hr versus 10 min; in that of GINQAYTGSTALSDG [Listeria peptide GINQAYTGSTALSDG (lmo2360)], 0.261 log2 fold change, Listeria 6 hr versus 10 min. In the case of GGINQAYTGSTALSDG [Listeria peptide GGINQAYTGSTALSDG (lmo2360)], the logFC was 0.239 log2 fold change, Listeria 6 hr versus 10 min. Turning to GGINQAYTGSTALSDGLN (also called lmo2360_289-306) [Listeria peptide GGINQAYTGSTALSDGLN (lmo2360)], the logFC was 0.555 log2 fold change, Listeria 6 hr versus 10 min. In the case of GTKEKVVATPVSNVSTSSA (also called lmo0186_285-303) [Listeria peptide GTKEKVVATPVSNVSTSSA (lmo0186)] it was 0.489 log2 fold change, Listeria 6 hr versus 10 min; in that of DDTTVKFTLPTVAPAFENT [Listeria peptide DDTTVKFTLPTVAPAFENT (lmo0135)], 0.786 log2 fold change, Listeria 6 hr versus 10 min. Turning to KEKVVATPVSNVSTSS [Listeria peptide KEKVVATPVSNVSTSS (lmo0186)], the logFC was -0.21 log2 fold change, Listeria 6 hr versus 10 min. With DFRYVFDTAKATAASSYPGSDETPP [Listeria peptide DFRYVFDTAKATAASSYPGSDETPP (lmo2185)], the logFC was 0.678 log2 fold change, Listeria 6 hr versus 10 min. In the case of VDDTTVKFTLPTVAPAFENT (also called lmo0135_150-169) [Listeria peptide VDDTTVKFTLPTVAPAFENT (lmo0135)], the logFC was 0.844 log2 fold change, Listeria 6 hr versus 10 min.

In the case of ADFRYVFDTAKATAASSYPG (also called lmo2185_293-312) [Listeria peptide ADFRYVFDTAKATAASSYPG (lmo2185)], the logFC was 1.57 log2 fold change, Listeria 6 hr versus 10 min.
